Laboratory results: article PMC10090351, “DNA accelerates the protease inhibition of a bacterial serpin chloropin” (Frontiers in Molecular Biosciences, 2023)
Values belong to the molecule of their own block, whether it stands above or below them.

Columns and labels:
thrombin [1] = target: thrombin (UniProt P00734)
thrombin [2] = target: thrombin (UniProt P00734); remark: listed apart in the source
kallikrein 7 = kallikrein 7 (UniProt P49862 30-253); assay: cell-based or functional assay
thrombin [3] = target: thrombin (UniProt P00734); remark: listed apart in the source
thrombin [4] = target: thrombin (UniProt P00734); remark: listed apart in the source
thrombin [5] = target: thrombin (UniProt P00734); remark: listed apart in the source

Sequence of kallikrein 7 (P49862 30-253): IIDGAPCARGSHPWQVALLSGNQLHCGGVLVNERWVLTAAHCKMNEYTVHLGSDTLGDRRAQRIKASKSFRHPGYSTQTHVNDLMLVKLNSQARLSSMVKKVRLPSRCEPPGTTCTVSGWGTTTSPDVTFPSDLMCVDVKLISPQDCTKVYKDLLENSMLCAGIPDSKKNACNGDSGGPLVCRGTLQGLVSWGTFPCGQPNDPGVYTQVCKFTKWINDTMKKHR

k obs of thrombin inhibition, 375 nM chloropin variant, 75 nM thrombin, with 0.8 nM linear plasmid DNA (thrombin [1]): 0.0041 s⁻¹
k obs of thrombin inhibition, 375 nM chloropin variant, 75 nM thrombin, without linear plasmid DNA (thrombin [1]): 0.0035 s⁻¹
k obs of thrombin inhibition, 1 uM chloropin variant, 0.1 uM thrombin, with 0.1 uM heparin (thrombin [1]): 0.0096 s⁻¹
k obs of thrombin inhibition, 1 uM chloropin variant, 0.1 uM thrombin, without heparin (thrombin [1]): 0.0083 s⁻¹
Molecule: Chloropin K268D/K269D (natural protein)

k obs of thrombin inhibition, 375 nM chloropin variant, 75 nM thrombin, with 0.8 nM linear plasmid DNA (thrombin [1]): 0.0035 s⁻¹
k obs of thrombin inhibition, 375 nM chloropin variant, 75 nM thrombin, without linear plasmid DNA (thrombin [1]): 0.0036 s⁻¹
k obs of thrombin inhibition, 1 uM chloropin variant, 0.1 uM thrombin, with 0.1 uM heparin (thrombin [1]): 0.0107 s⁻¹
k obs of thrombin inhibition, 1 uM chloropin variant, 0.1 uM thrombin, without heparin (thrombin [1]): 0.0086 s⁻¹
Molecule: Chloropin K126D/K127D (natural protein)

k obs of thrombin inhibition, 375 nM chloropin variant, 75 nM thrombin, with 0.8 nM linear plasmid DNA (thrombin [1]): 0.0055 s⁻¹
k obs of thrombin inhibition, 375 nM chloropin variant, 75 nM thrombin, without linear plasmid DNA (thrombin [1]): 0.0038 s⁻¹
k obs of thrombin inhibition, 1 uM chloropin variant, 0.1 uM thrombin, with 0.1 uM heparin (thrombin [1]): 0.0555 s⁻¹
k obs of thrombin inhibition, 1 uM chloropin variant, 0.1 uM thrombin, without heparin (thrombin [1]): 0.0095 s⁻¹
Molecule: Chloropin K119D (natural protein)

fold increase of k obs of thrombin inhibition with low molecular weight heparin (series of concentrations, bell-shaped; 5.9-fold at 0.1 uM, maximum at 0.5 uM) (thrombin [2]): 17.2 fold
k obs of thrombin inhibition, 375 nM chloropin, 75 nM thrombin, with 0.8 nM linear plasmid DNA (thrombin [1]): 0.0142 s⁻¹
k obs of thrombin inhibition, 375 nM chloropin, 75 nM thrombin, with supercoiled plasmid DNA (thrombin [1]): 0.0193 s⁻¹
k obs of thrombin inhibition, 375 nM chloropin, 75 nM thrombin, without linear plasmid DNA (thrombin [1]): 0.0035 s⁻¹
k obs of thrombin inhibition, 375 nM chloropin, 75 nM thrombin, without supercoiled plasmid DNA (thrombin [1]): 0.0035 s⁻¹
k obs of thrombin inhibition, 1 uM chloropin, 0.1 uM thrombin, with 0.1 uM heparin (thrombin [1]): 0.0667 s⁻¹
k obs of thrombin inhibition, 1 uM chloropin, 0.1 uM thrombin, without heparin (thrombin [1]): 0.0083 s⁻¹
stoichiometry of inhibition (SI), residual KLK7 activity after 12 h with 0-2 uM chloropin (kallikrein 7): 1.55
fold increase of the rate of thrombin inhibition with linear DNA (series of concentrations; maximum around 2.4-4.8 nM) (thrombin [3]): 142 fold
fold increase of the rate of thrombin inhibition with supercoiled plasmid DNA (0.05-25.6 nM, bell-shaped; 1.5-fold at 0.1 nM, maximum between 1.6 and 3.2 nM) (thrombin [3]): 74 fold
k 2, derived second-order inhibition rate constant (thrombin [4]): 25000 M⁻¹ s⁻¹
k app, apparent second-order rate constant of thrombin inhibition (residual protease activity) (thrombin [4]): 14700 M⁻¹ s⁻¹
stoichiometry of inhibition (SI), residual thrombin activity after 12 h with 0-2 uM chloropin (thrombin [4]): 1.68
second order rate constant of thrombin inhibition with DNA (thrombin [5]): 3.6e+06 M⁻¹ s⁻¹
B1: chloropin (natural protein, Chlorobium limicola, UniProt B3ECZ8 54-420, looked up)
chain: ELAVDLYRNLAVTGKNLFFSPSSIETALSMTMSGARNRTERQMADVMHVGPDAMERHHAGLASFEKQLESIQKKGKVTIASSNSIWPQKNYPLAPSWLAQLKRYYGTSVTPVDYIHETEKARIAINRRVEKDTKNRIRELLKPGILDPLTRLALVNAVYFKGDWEHPFNENNTVASPFYIRQGTTGKAPLMRQSASFGYGDHDGVQVLELPYAGKKLSMIVVLPKERFGLEALEKTLTPKQFALWTANLSERKIEALLPKFRTTSAFRLDETLRHMGMTDAFDRNLADFSGMVSNSDKLYIGAVVHKAFVDVGEKGTEAAAATAVVMQLRSAMPMPVPVFKADHPFLFAIRENSTGRILFMGRISDP
